Assay results taken from patent publication US8273357B2, “Antigen-carbohydrate conjugates” (Massachusetts Institute of Technology, priority 2004, dated 2012).
Entries after “also recorded” stand apart in the source; their conditions may differ.

B1: (OVA)-3-1: ovalbumin modified via SMCC with nonasaccharide 3-1, average of three saccharides per OVA (conjugate)
chain: GSIGAASMEFCFDVFKELKVHHANENIFYCPIAIMSALAMVYLGAKDSTRTQINKVVRFDKLPGFGDSIEAQCGTSVNVHSSLRDILNQITKPNDVYSFSLASRLYAEERYPILPEYLQCVKELYRGGLEPINFQTAADQARELINSWVESQTNGIIRNVLQPSSVDSQTAMVLVNAIVFKGLWEKAFKDEDTQAMPFRVTEQESKPVQMMYQIGLFRVASMASEKMKILELPFASGTMSMLVLLPDEVSGLEQLESIINFEKLTEWTSSNVMEERKIKVYLPRMKMEEKYNLTSVLMAMGITDVFSSSANLSGISSAESLKISQAVHAAHAEINEAGREVVGSAEAGVDAASVSEEFRADHPFLFCIKHIATNAVLFFGRCVSP

Columns and labels:
[1] = tested on: OTII (CD4+) T cells in unfractionated splenocytes; assay: Antigen presentation assay, unfractionated OTII splenocytes, [3H]thymidine T cell proliferation; assay type: cell-based, mouse
Protocol: FIG. 2B is a graph showing that oligosaccharide modification of OVA elicits stronger presentation to OTII T cells than unmodified OVA. Unfractionated OTII splenocytes (3×10^5/well) were incubated with graded doses of OVA or oligosaccharide-modified OVA for eighty-four hours with [^3H]thymidine (1 μCi) added for the last 12 hours. Thereafter [^3H]thymidine incorporation levels were measured and plotted. FIG. 2C is a graph showing that observed enhancements in antigen presentation of (OVA)-3-1 to T cells is carbohydrate dependent. Splenocytes were incubated with antigen as in (B)±(BSA)-3-1 (10 μg mL^−1). In cases where (OVA)-3-1 was added to OVA wells to assess the possibility of direct activation of T cells (see text), (OVA)-3-1 was present at 50 ng mL^−1; incubations were performed for seventy-two hours with [^3H]thymidine (1 μCi) added for the last 12 hours. FIG. 2D is a graph showing that the receptor mediated uptake of (OVA)-3-1 has a different binding profile than that observed for DC-SIGN. Unfractionated splenocytes were incubated with OVA or (OVA)-3-1±mBSA or Lewis^x-BSA (each at 100 μg mL^−1). Incubations were performed for seventy-two hours with [^3H]thymidine (1 μCi) added for the last twelve hours. All values reported are the mean of triplicate measurements.
The ability of these conjugates to enhance antigen uptake by dendritic cells was assessed in comparison to unmodified OVA by incubating graded doses of conjugate and OVA with unfractionated splenocytes (containing T cells, B cells, dendritic cells, macrophages) isolated from OTII (CD4^+) transgenic mice. The ability of dendritic cells to present antigenic peptides derived from targeted proteins was measured as a function of T cell proliferation in response to those presented peptides. T cell proliferation is quantified by [^3H]thymidine incorporation during cellular division.
Pooled inguinal lymph nodes were dissociated in 10% Fetal Bovine Serum RPMI (supplemented with 2 mM L-glutamine) and either mechanically dissociated between two glass slides or, to improve the overall cell yield, incubated in the presence of collagenase (Boehringer) and EDTA for 25 minutes at 37° C./5% CO2 to dissociate DC-T cell clusters. For antigen presentation assays with whole splenocytes, isolated spleens were injected with collagenase/EDTA, gently teased apart and incubated as described above. Splenocytes were cultured in 96-well round-bottom plates at a density of 3×10^5 cells/0.2 mL. In antigen presentation assays utilizing purified dendritic cells and T cells, dendritic cells were isolated from the spleens of C57BL/6 mice following collagenase/EDTA treatment by labeling the dendritic cells with commercially available magnetic microbeads linked to an anti-CD11c^+ antibody (Miltenyi Biotec, Bergisch Gladbach, Germany) (according to the Miltenyi Biotec protocol) and separating labeled Dendritic cells from non-dendritic cells by application of a magnetic field. Similarly, purified […] T cells were obtained from spleens of OTII transgenic mice using magnetic beads Dynal (Oslo, Norway). Purified dendritic cells and T cells were seeded onto 96-well plates round-bottom Plates at a 1:2 DC:T cell ratio unless stated otherwise in the Figures.

langerin = langerin (Homo sapiens, UniProt Q9UJ71); conditions: solid-phase binding studies; cited from earlier work
OTII T cells = assay: Adoptive transfer of OTII cells, subcutaneous immunization, FACS count of donor T cells; assay type: in vivo, mouse; conditions: 200 ng subcutaneous
Source text: FIGS. 6A, 6B, and 6C are a schematic diagram (FIG. 6A) and a series of flow cytometry dot plots (FIGS. 6B and 6C). FIG. 6A is a schematic diagram that illustrates the adoptive transfer technique: CD4^+CD45.2^+ ovalbumin-specific T cells are adoptively transferred to congenic CD45.1^+ recipients. After immunization the draining lymph nodes and other lymphoid organs (e.g., the spleen) are isolated. Cells from these tissues are stained with an antibody against the CD45.2 isoform and the OTII T cell receptor to identify the original donor cells. […] B6.Ly5.2/Cr mice were injected intravenously with 2×10^7 OTII splenocytes. 24 hours later the mice were injected subcutaneously with PBS, OVA (200 ng), or (OVA)-3-1 (200 ng). […] Each panel represents two or more experiments.
In order to determine the immunological implications of (OVA)-3-1 internalization and presentation by dendritic cells in vivo, the technique of adoptive transfer (FIG. 6A) was employed to track the T cell responses to DC presented antigen^15. […]
CD45.2^+ VA-specific T cells were transferred to B6.Ly5.2/Cr (CD45.1^+) recipients and, after a twenty-four hour rest period, the mice were immunized subcutaneously with PBS, OVA or (OVA)-3-1. After seventy-two hours, cells were isolated from the draining inguinal lymph nodes and counted by FACS to determine the extent of OTII cell division induced by the immunization regimen (FIG. 6B). […]

Chain of langerin (Q9UJ71 whole entry, species assumed): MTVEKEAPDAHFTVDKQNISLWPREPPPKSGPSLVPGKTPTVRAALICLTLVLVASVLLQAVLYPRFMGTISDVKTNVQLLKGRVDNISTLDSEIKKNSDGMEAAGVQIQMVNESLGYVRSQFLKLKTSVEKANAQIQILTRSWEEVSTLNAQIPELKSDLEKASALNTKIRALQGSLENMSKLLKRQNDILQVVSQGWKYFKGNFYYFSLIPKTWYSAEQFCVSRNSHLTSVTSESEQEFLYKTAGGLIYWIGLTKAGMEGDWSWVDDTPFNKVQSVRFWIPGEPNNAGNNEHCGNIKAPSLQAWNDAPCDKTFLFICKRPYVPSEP

Molecule | inhibition of uptake and presentation of (OVA)-3-1 to OTII T cells ([1]; OTII splenocytes, mBSA or Lewis^x-BSA each at 100 μg mL^−1) | binding by langerin (langerin) | T cell response curve of OVA plus (OVA)-3-1 versus OVA alone (direct activation of T cells) ([1]; 0.05 μg mL^−1 (OVA)-3-1 added to graded doses of OVA) | enhancement of antigen uptake and presentation to T cells (T cell proliferation) compared to unmodified OVA ([1]; OTII splenocytes, graded doses) | total OTII cell number in the draining lymph node compared to soluble OVA (OTII T cells; 72 h) | total OTII cell number in the spleen (OTII T cells; 3 days)
mBSA: BSA modified with approximately 25 mannose residues per protein molecule [reference compound] | Neither mBSA nor Lewis^x-BSA significantly impair; also recorded: did not significantly effect presentation | bound by langerin | – | – | – | –
B1 | – | – | identical | greatest enhancement | doubling; also recorded: promotes expansion | appreciable increase
